{
  "source": "patent US10006010B2",
  "about": "“Cytochrome P450 fusion protein” (The University of York, priority 2014, dated 2018)",
  "molecules": {"B1": {"name": "oxidoreductase module: C-terminal oxidoreductase module of STORR (codon optimized SEQ ID NO 33) expressed in S. cerevisiae (protein)", "chain": "MESSGVPVITLGSGKVMPVLGMGTFEKVGKGSERERLAILKAIEVGYRYFDTAAAYETEEVLGEAIAEALQLGLVKSRDELFISSMLWCTDAHADRVLLALQNSLRNLKLEYVDLYMLPFPASLKPGKITMDIPEEDICRMDYRSVWAAMEECQNLGFTKSIGVSNFSCKKLQELMATANIPPAVNQVEMSPAFQQKKLREYCNANNILVSAISVLGSNGTPWGSNAVLGSEVLKKIAMAKGKSVAQVSMRWVYEQGASLVVKSFSEERLRENLNIFDWELTKEDHEKIGEIPQCRILSAYFLVSPNGPFKSQEELWDDEA", "modifications": "Yeast codon optimised Oxidoreductase"}, "B2": {"name": "Oxidoreductase B: Recombinant His-tagged close homologue (96% amino acid identity) of oxidoreductase A (SEQ ID NO 11), expressed in E. coli (protein, listed as Papaver somniferum)", "chain": "MESSGVPVITLSSGKLMPVLGMGTFEKVGKGSERERLVILKAIEVGYRYFDTAAAYETEEVLGEAIAEALQLGLIKSRDELFISSMLWCTDAHPDRVLLALQNSLRNLKLEYLDLYMLPFPVSLKPGKITMDIQEEDICRMDYRSVWAAMEECQNLGFTKSIGVSNFSCKKLQELMATANIPPDVNQVEMSPAFQQKKLRDYCNANNILVSAVSILGSNGTPWGSNAVLGSEVLRKIAMAKGKSVAQVSMRWVYDQGASLVVKSFSEERLRENLNIFDWELTKEDHEKIGEIPQCRILSAYFLVSPNGPFKSQEELWDDEA", "modifications": "His tag"}},
  "assay_type_in_all_cases": "biochemical",
  "key": {"[1]": {"assay": "Enzyme assay on soluble/microsomal preparations of S. cerevisiae expressing STORR fusion or modules, substrate 1,2-dehydroreticuline", "conditions": "soluble or microsomal preparations from S. cerevisiae; 100 μM substrate, 1 mM NADPH, 37° C. 3 hours", "source_text": "Genscript created synthetic DNA sequences were created for PsCPR [Genbank accession AAC05021, (Rosco A. et al. (1997) Arch. Biochem. Biophys. 348, 369-77), the full length STORR (CYP82Y2-Oxidoreductatse (“Oxired”)) protein, the N-terminal CYP82Y2 module and C-terminal oxidoreductase (Oxidoreductase) module, that were codon optimised for expression is Saccharomyces cerevisiae. The codon-optimized sequences are provided with the SEQ ID NO 30-33.\nExpression vector pESC-TRP::soloxired was created by digesting the corresponding PCR product with NotI and PacI and inserting this behind the GAL10 promoter of pESC-TRP. pESC-TRP::CPR was created by digesting the corresponding PCR product with BamHI and XhoI and inserting this behind the GAL1 promoter of pESC-TRP. This was then used to created pESC-TRP::CPR::CYP82Y2 and pESC-TRP::CPR::CYP82Y2-Oxidoreductase. These plasmids were then transformed in S. cerevisiae G175 (Sorger D. et al. (2004) J. Biol. Chem. 279, 31190-6) using lithium acetate protocol (Geitz R. D. and Woods R. A. (2002) Methods in Enzymology 350, 87-96). Yeasts were cultivated in Synthetic Defined (SD) medium composed of 2% carbon source, 0.5% ammonium sulfate, 1.7 g L^−1 yeast nitrogen base (without amino acids and ammonium sulfate) and 1.92 g L^−1 or tryptophan drop-out supplement (Sigma-Aldrich, Gillingham, UK). Cultures grown using glucose as a carbon source were used to inoculate 200 ml cultures with raffinose as a carbon source to an OD 600 nm of 0.10 in 1 L conical flasks. […]\nEnzymes assays were set up in 250 μL volumes containing final concentrations of 50 mM Bis-tris propane buffer, 1 mM NADPH and 100 μM of substrate. […] The extract was then dissolved in 100 μL of 50:50:0.1 hexane/ethanol/diethylamine and analysed by the chiral HPLC method to determine the relative amounts of (R)- and (S)-reticuline.\nPoppy capsules were processed and analysed by UPLC-MS and R-scripts as previously described (“the standard method”; (Winzer T. et al. (2012) Science 336, 1704-8)). […]"}, "[2]": {"assay": "Recombinant oxidoreductase enzyme assay (E. coli-expressed, purified), substrate coclaurine", "protocol": "(§1) The coding sequences of oxidoreductase A and B (Seq ID NO 6 and NO 10, respectively) were codon optimised for expression in E. coli and the synthetic genes were cloned into the vector pET28 to yield a recombinant C-terminal 6×-His tagged enzymes (GenScript, Piscataway, N.J., USA). The constructs were transformed into E. coli Arctic express strain (Agilent Technologies, Wokingham, UK). Per construct, 3-5 freshly transformed Arctic express E. coli colonies were pre-inoculated in 10 mL 2YT medium containing 100 mg/L kanamycin and 20 mg/L gentamycin and incubated at 37° C. overnight. A 5-mL aliquot was used to inoculate 500 mL of the above medium not containing antibiotics and cells were allowed to grow at 30° C. until OD600=0.5-0.7. A 1-mL aliquot of the uninduced cells was removed and spun down at 14,000×g and the cell pellet was lysed in SDS-PAGE sample buffer. 1 mM IPTG was added to the culture and then incubated at 20° C. for 24 h. Cells were then harvested following a 5 min spin at 5,000×g and resuspended in 20 mL ice-cold extraction buffer (0.1 M Tris pH 8, 0.3 M NaCl, 0.1% (v/v) Tween 20 and Halt EDTA-free protease inhibitor cocktail (Pierce/Thermoscientific, Cramlington, UK)). Bacterial suspensions were lysed in a French Press at 4° C. using a 25 kpsi disruption cycle (Model TS0.75 KU, Constant Cell Disruption Systems, Daventry, UK). Cell lysates were then spun down at 12,000×g for 20 min at 4° C. and thus fractionated into supernatant (soluble fraction) and pellet.\n(§2) A 20 mL soluble fraction was filtered through a 0.45 μm syringe filter and the His-tagged proteins were purified using a His Trap Fast Flow crude 5 mL column (GE Healthcare, Little Chalfont, UK) installed in an AKTA Purifier UPC 10 System (GE Healthcare, Sweden) at 4° C. under the following steps: column equilibration in 50 mL 0.1 M Tris pH 8, 0.3 M NaCl, 0.1% (v/v) Tween 20 at 2 mL/min; sample loading at 0.4 mL/min; column wash in 50 mL 0.1 M Tris pH 8, 0.3 M NaCl, 0.1% (v/v) Tween 20, 5 mM imidazole at 2 mL/min; elution in 100 mL 0.1 M Tris pH 8, 0.3 M NaCl, 0.1% (v/v) Tween 20, and a 10-500 mM imidazole gradient at 2 mL/min. Two mL fractions were individually collected. Protein absorbance at 280 nm was monitored throughout the purification procedure. Elution fractions showing absorbance peaks were collected and analysed through SDS-PAGE. Purified proteins (Seq ID NO 3 and 11, respectively) were quantified using Coomassie Plus Protein Assay (Pierce/Thermoscientific, Cramlington, UK) and desalted to remove any inhibitors/interferents using 10 mL Zeba Spin Desalting Columns MWCO 7K, (Pierce/Thermoscientific, Cramlington, UK) pre-equilibrated in 20 mM Potassium Phosphate buffer pH 7.\n(§3) General reaction set up was carried out as previously described (Lenz & Zenk, 1995, FEBS 233:132-139). Substrates (S)-reticuline, 1,2-dehydroreticuline and coclaurine were purchased from TRC Chemicals (Toronto, Canada) and codeinone was supplied by MacFarlan-Smith (Edinburgh, UK). Assay reactions contained […], 5 μg oxidoreductase A or B preparation, 100 mM buffer covering a range of pH values (potassium phosphate pH 6-8, glycine-NaOH pH 9) and 75 μM substrate. Reactions were incubated for 2 h at 37° C. and immediately frozen at −80° C. Reactions were dried down to powder in speedvac Gene Vac EZ-2 plus (Ipswich, UK) at 40° C. and resuspended in 100 μL 1:1 Hexane:Ethanol (v/v), 0.1% Diethylamine (v/v). […]"}, "[3]": {"assay": "Recombinant oxidoreductase enzyme assay (E. coli-expressed, purified), substrate (S)-reticuline", "protocol": "as §1, §2, §3"}, "[4]": {"assay": "Recombinant oxidoreductase enzyme assay (E. coli-expressed, purified), substrate 1,2-dehydroreticuline", "protocol": "as §1, §2, §3"}, "[5]": {"assay": "Recombinant oxidoreductase enzyme assay (E. coli-expressed, purified), substrate codeinone", "conditions": "for nmol product formation at pH 6.0 / nmol product formation at pH 7.0 / nmol product formation at pH 8.0 / nmol product formation at pH 9.0: substrate codeinone", "protocol": "as §1, §2\nGeneral reaction set up was carried out as previously described (Lenz & Zenk, 1995, FEBS 233:132-139). Substrates (S)-reticuline, 1,2-dehydroreticuline and coclaurine were purchased from TRC Chemicals (Toronto, Canada) and codeinone was supplied by MacFarlan-Smith (Edinburgh, UK). Assay reactions contained […], 5 μg oxidoreductase A or B preparation, 100 mM buffer covering a range of pH values (potassium phosphate pH 6-8, glycine-NaOH pH 9) and 75 μM substrate. Reactions were incubated for 2 h at 37° C. and immediately frozen at −80° C. Reactions were dried down to powder in speedvac Gene Vac EZ-2 plus (Ipswich, UK) at 40° C. and resuspended in 100 μL 1:1 Hexane:Ethanol (v/v), 0.1% Diethylamine (v/v).\nChiral separations were performed following the method previously described (Iwasa et al., 2009, Phytochem 70:198-206) and carried out on a TSP HPLC system equipped with a UV6000 LP detector, a P4000 pump and an AS 3000 autosampler (Thermo Separation Products/Thermoscientific, Waltham, Mass., USA) connected to a mass spectrometer LCQ Classic mass spectrometer (Finnigan Mat, San Jose, Calif., USA). A Lux 5μ Cellulose 3 250×4.6 mm column (Phenomenex, Macclesfield, UK) was used for separations. […]"}, "[6]": {"conditions": "NADPH dependent reduction, pH 6 to 9"}, "[7]": {"conditions": "product neopine, triplicate mean ± SD"}},
  "data": [
    {"molecule": "B1", "values": [
      {"measurement": "conversion efficiency of 1,2-dehydroreticuline to (R)-reticuline", "setting": "[1]", "result": 100, "unit": "%"}
    ]},
    {"molecule": "B2", "values": [
      {"measurement": "transformation of the substrate coclaurine (in words)", "setting": "[2]; pH 6 to 9", "result": "no transformation of the substrate"},
      {"measurement": "nmol product formation at pH 6.0", "setting": "[2]; substrate coclaurine, no product observed, pH 6.0, 75 μM substrate, NADPH, 2 h 37° C., triplicate mean ± SD", "result": 0.0, "unit": "nmol"},
      {"measurement": "nmol product formation at pH 7.0", "setting": "[2]; substrate coclaurine, no product observed, pH 7.0", "result": 0.0, "unit": "nmol"},
      {"measurement": "nmol product formation at pH 8.0", "setting": "[2]; substrate coclaurine, no product observed, pH 8.0", "result": 0.0, "unit": "nmol"},
      {"measurement": "nmol product formation at pH 9.0", "setting": "[2]; substrate coclaurine, no product observed, pH 9.0", "result": 0.0, "unit": "nmol"},
      {"measurement": "transformation of the substrate (S)-reticuline (in words)", "setting": "[3]; pH 6 to 9", "result": "no transformation of the substrate"},
      {"measurement": "nmol product formation at pH 6.0", "setting": "[3]; substrate (S)-reticuline, expected product dehydroreticuline, pH 6.0", "result": 0.0, "unit": "nmol"},
      {"measurement": "nmol product formation at pH 7.0", "setting": "[3]; substrate (S)-reticuline, expected product dehydroreticuline, pH 7.0", "result": 0.0, "unit": "nmol"},
      {"measurement": "nmol product formation at pH 8.0", "setting": "[3]; substrate (S)-reticuline, expected product dehydroreticuline, pH 8.0", "result": 0.0, "unit": "nmol"},
      {"measurement": "nmol product formation at pH 9.0", "setting": "[3]; substrate (S)-reticuline, expected product dehydroreticuline, pH 9.0", "result": 0.0, "unit": "nmol"},
      {"measurement": "conversion of 1,2-dehydroreticuline to (R)-reticuline (in words)", "setting": "[4]; pH 6 to 9", "result": "efficiently converted"},
      {"measurement": "nmol product formation at pH 6.0", "setting": "[4]; substrate dehydroreticuline, product (R)-reticuline, pH 6.0, triplicate mean ± SD", "result": "0.148 ± 0.036", "unit": "nmol"},
      {"measurement": "nmol product formation at pH 7.0", "setting": "[4]; substrate dehydroreticuline, product (R)-reticuline, pH 7.0, triplicate mean ± SD", "result": "0.130 ± 0.021", "unit": "nmol"},
      {"measurement": "nmol product formation at pH 8.0", "setting": "[4]; substrate dehydroreticuline, product (R)-reticuline, pH 8.0, triplicate mean ± SD", "result": "0.164 ± 0.020", "unit": "nmol"},
      {"measurement": "nmol product formation at pH 9.0", "setting": "[4]; substrate dehydroreticuline, product (R)-reticuline, pH 9.0, triplicate mean ± SD", "result": "0.202 ± 0.026", "unit": "nmol"},
      {"measurement": "formation of codeine from codeinone (in words)", "setting": "[5]; [6]", "result": "did not form codeine"},
      {"measurement": "formation of neopine from codeinone (in words)", "setting": "[5]; [6]", "result": "neopine production within pH values 6 to 8"},
      {"measurement": "nmol product formation at pH 6.0", "setting": "[5]; product codeine", "result": 0.0, "unit": "nmol"},
      {"measurement": "nmol product formation at pH 7.0", "setting": "[5]; product codeine", "result": 0.0, "unit": "nmol"},
      {"measurement": "nmol product formation at pH 8.0", "setting": "[5]; product codeine", "result": 0.0, "unit": "nmol"},
      {"measurement": "nmol product formation at pH 9.0", "setting": "[5]; product codeine, triplicate mean ± SD", "result": 0.0, "unit": "nmol"},
      {"measurement": "nmol product formation at pH 6.0", "setting": "[5]; [7]", "result": "0.040 ± 0.020", "unit": "nmol"},
      {"measurement": "nmol product formation at pH 7.0", "setting": "[5]; [7]", "result": "0.005 ± 0.001", "unit": "nmol"},
      {"measurement": "nmol product formation at pH 8.0", "setting": "[5]; [7]", "result": "0.016 ± 0.008", "unit": "nmol"},
      {"measurement": "nmol product formation at pH 9.0", "setting": "[5]; product neopine", "result": 0.000, "unit": "nmol"}
    ]}
  ]
}
